Data reported in US20200079833A1 (AstraZeneca / MedImmune, published 2020).
Starred links: 1 amine or outer side, 2 acyl side, 3 side chain; linkers in the order of their positions; H or OH if unused. Non-standard residues stand in square brackets, D forms with d. Groups on a side chain read outwards from the residue. Primed or numbered codes have the meaning given here. No end group written: not given here. *: point of attachment. γGlu = O=C(O)[C@H](CCC(=O)[*:2])N[*:1]; Stearoyl = CCCCCCCCCCCCCCCCCC(=O)*; Palmitoyl = CCCCCCCCCCCCCCCC(=O)*; αMeF = C[C@](N)(Cc1ccccc1)C(=O)O; αMeK = C[C@](N)(CCCCN)C(=O)O; αMeS = C[C@](N)(CO)C(=O)O; PEG2′ = not defined here; Aib = CC(C)(N)C(=O)O

T1: glucose-dependent insulinotropic peptide (gastric inhibitory polypeptide) receptor (GIPR) (human, UniProt P48546 22-466)
T1 sequence (looked up): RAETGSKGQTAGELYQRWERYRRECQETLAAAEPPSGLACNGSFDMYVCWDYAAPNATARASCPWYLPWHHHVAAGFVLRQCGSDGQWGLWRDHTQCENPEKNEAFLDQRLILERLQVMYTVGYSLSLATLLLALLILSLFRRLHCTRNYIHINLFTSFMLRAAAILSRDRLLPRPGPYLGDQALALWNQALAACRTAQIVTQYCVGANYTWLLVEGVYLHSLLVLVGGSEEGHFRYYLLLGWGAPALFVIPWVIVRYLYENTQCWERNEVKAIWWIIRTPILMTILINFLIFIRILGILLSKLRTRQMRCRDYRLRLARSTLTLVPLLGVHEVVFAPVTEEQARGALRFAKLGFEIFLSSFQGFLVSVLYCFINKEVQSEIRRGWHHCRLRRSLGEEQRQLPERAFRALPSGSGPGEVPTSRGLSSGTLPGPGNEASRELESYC

B1: SEQ ID NO 96 (peptide)
peptide: H[Aib]EK([γGlu-Palmitoyl])S[αMeF]TSDV[αMeS]S[αMeF]LEGEAA[αMeK]E[αMeF]IA[αMeF]VV[αMeK]GG-NH2
modifications: N-terminus assumed
SMILES: CCCCCCCCCCCCCCCC(=O)N[C@@H](CCC(=O)NCCCC[C@H](NC(=O)[C@H](CCC(=O)O)NC(=O)C(C)(C)NC(=O)[C@@H](N)Cc1c[nH]cn1)C(=O)N[C@@H](CO)C(=O)N[C@@](C)(Cc1ccccc1)C(=O)N[C@H](C(=O)N[C@@H](CO)C(=O)N[C@@H](CC(=O)O)C(=O)N[C@H](C(=O)N[C@@](C)(CO)C(=O)N[C@@H](CO)C(=O)N[C@@](C)(Cc1ccccc1)C(=O)N[C@@H](CC(C)C)C(=O)N[C@@H](CCC(=O)O)C(=O)NCC(=O)N[C@@H](CCC(=O)O)C(=O)N[C@@H](C)C(=O)N[C@@H](C)C(=O)N[C@@](C)(CCCCN)C(=O)N[C@@H](CCC(=O)O)C(=O)N[C@@](C)(Cc1ccccc1)C(=O)N[C@H](C(=O)N[C@@H](C)C(=O)N[C@@](C)(Cc1ccccc1)C(=O)N[C@H](C(=O)N[C@H](C(=O)N[C@@](C)(CCCCN)C(=O)NCC(=O)NCC(N)=O)C(C)C)C(C)C)[C@@H](C)CC)C(C)C)[C@@H](C)O)C(=O)O

biological target: glucagon receptor (GCGR) (human, UniProt P47871 26-477); test: cell-based or functional assay
Sequence (P47871 26-477): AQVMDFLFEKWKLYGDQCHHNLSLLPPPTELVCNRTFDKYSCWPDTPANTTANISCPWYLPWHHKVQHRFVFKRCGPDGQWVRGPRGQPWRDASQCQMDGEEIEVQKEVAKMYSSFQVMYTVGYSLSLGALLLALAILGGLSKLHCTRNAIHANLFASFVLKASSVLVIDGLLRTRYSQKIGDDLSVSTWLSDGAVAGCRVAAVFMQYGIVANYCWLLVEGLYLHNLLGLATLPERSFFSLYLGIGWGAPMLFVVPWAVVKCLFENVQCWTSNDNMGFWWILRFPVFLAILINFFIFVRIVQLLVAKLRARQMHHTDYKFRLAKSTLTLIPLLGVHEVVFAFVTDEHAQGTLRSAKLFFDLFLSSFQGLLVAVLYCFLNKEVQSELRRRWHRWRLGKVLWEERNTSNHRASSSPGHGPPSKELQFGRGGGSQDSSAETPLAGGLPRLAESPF

cAMP Primary assay EC50 Gluc-R [nM] | cAMP Primary assay EC50 Gluc-R (2nd) [nM] | Binder
25 | 25.4 | H[Aib]EGS[αMeF]TSDV[αMeS]S[αMeF]LEGEAA[αMeK]E[αMeF]IA[αMeF]VVK([PEG2′-PEG2′-γGlu-Stearoyl])GG-NH2 [SEQ ID NO 101]
25 | 25 | H[Aib]EGS[αMeF]TSDV[αMeS]S[αMeF]LEGEAK([PEG2′-PEG2′-γGlu-Stearoyl])[αMeK]E[αMeF]IA[αMeF]VV[αMeK]GG-NH2 [SEQ ID NO 110]
25 | 25.4 | H[Aib]EGS[αMeF]TSDV[αMeS]S[αMeF]LEGEAA[αMeK]K([PEG2′-PEG2′-γGlu-Stearoyl])[αMeF]IA[αMeF]VV[αMeK]GG-NH2 [SEQ ID NO 108]
25 | 25 | H[Aib]EGS[αMeF]TSDV[αMeS]S[αMeF]LEGEAA[αMeK]E[αMeF]IK([PEG2′-PEG2′-γGlu-Stearoyl])[αMeF]VV[αMeK]GG-NH2 [SEQ ID NO 105]
27 | 27 | B1
25 | 25 | H[Aib]EGS[αMeF]TSDV[αMeS]S[αMeF]LEGEK([PEG2′-PEG2′-γGlu-Stearoyl])A[αMeK]E[αMeF]IA[αMeF]VV[αMeK]GG-NH2 [SEQ ID NO 111]
25 | 24.9 | H[Aib]EGS[αMeF]TSDV[αMeS]S[αMeF]LEGEAA[αMeK]E[αMeF]IA[αMeF]VV[αMeK]GK([PEG2′-PEG2′-γGlu-Stearoyl])-NH2 [SEQ ID NO 99]

biological target: GLP-1 receptor (GLP-1R) (human, UniProt P43220 24-463); test: cell-based or functional assay

cAMP Mean pM GLP-1R [pM] | cAMP Primary assay EC50 GLP-1R n1 [nM] | cAMP Primary assay EC50 GLP-1R n2 [nM] | Binder
55 | 0.058 | 0.0512 | H[Aib]EGS[αMeF]TSDV[αMeS]S[αMeF]LEGEAA[αMeK]E[αMeF]IA[αMeF]VVK([PEG2′-PEG2′-γGlu-Stearoyl])GG-NH2 [SEQ ID NO 101]
62 | 0.06 | 0.0639 | H[Aib]EGS[αMeF]TSDV[αMeS]S[αMeF]LEGEAK([PEG2′-PEG2′-γGlu-Stearoyl])[αMeK]E[αMeF]IA[αMeF]VV[αMeK]GG-NH2 [SEQ ID NO 110]
4 | 0.0038 | 0.00346 | H[Aib]EGS[αMeF]TSDV[αMeS]S[αMeF]LEGEAA[αMeK]K([PEG2′-PEG2′-γGlu-Stearoyl])[αMeF]IA[αMeF]VV[αMeK]GG-NH2 [SEQ ID NO 108]
18 | 0.021 | 0.0148 | H[Aib]EGS[αMeF]TSDV[αMeS]S[αMeF]LEGEAA[αMeK]E[αMeF]IK([PEG2′-PEG2′-γGlu-Stearoyl])[αMeF]VV[αMeK]GG-NH2 [SEQ ID NO 105]
746 | 0.92 | 0.57 | B1
17 | 0.018 | 0.0164 | H[Aib]EGS[αMeF]TSDV[αMeS]S[αMeF]LEGEK([PEG2′-PEG2′-γGlu-Stearoyl])A[αMeK]E[αMeF]IA[αMeF]VV[αMeK]GG-NH2 [SEQ ID NO 111]
54 | 0.058 | 0.0493 | H[Aib]EGS[αMeF]TSDV[αMeS]S[αMeF]LEGEAA[αMeK]E[αMeF]IA[αMeF]VV[αMeK]GK([PEG2′-PEG2′-γGlu-Stearoyl])-NH2 [SEQ ID NO 99]

biological target: T1, glucose-dependent insulinotropic …; test: cell-based or functional assay

cAMP Primary assay EC50 GIP-R [nM] | cAMP Primary assay EC50 GIP-R (2nd) [nM] | Binder
25 | 25.4 | H[Aib]EGS[αMeF]TSDV[αMeS]S[αMeF]LEGEAA[αMeK]E[αMeF]IA[αMeF]VVK([PEG2′-PEG2′-γGlu-Stearoyl])GG-NH2 [SEQ ID NO 101]
25 | 25 | H[Aib]EGS[αMeF]TSDV[αMeS]S[αMeF]LEGEAK([PEG2′-PEG2′-γGlu-Stearoyl])[αMeK]E[αMeF]IA[αMeF]VV[αMeK]GG-NH2 [SEQ ID NO 110]
25 | 25.4 | H[Aib]EGS[αMeF]TSDV[αMeS]S[αMeF]LEGEAA[αMeK]K([PEG2′-PEG2′-γGlu-Stearoyl])[αMeF]IA[αMeF]VV[αMeK]GG-NH2 [SEQ ID NO 108]
25 | 25 | H[Aib]EGS[αMeF]TSDV[αMeS]S[αMeF]LEGEAA[αMeK]E[αMeF]IK([PEG2′-PEG2′-γGlu-Stearoyl])[αMeF]VV[αMeK]GG-NH2 [SEQ ID NO 105]
27 | 27 | B1
25 | 25 | H[Aib]EGS[αMeF]TSDV[αMeS]S[αMeF]LEGEK([PEG2′-PEG2′-γGlu-Stearoyl])A[αMeK]E[αMeF]IA[αMeF]VV[αMeK]GG-NH2 [SEQ ID NO 111]
25 | 24.9 | H[Aib]EGS[αMeF]TSDV[αMeS]S[αMeF]LEGEAA[αMeK]E[αMeF]IA[αMeF]VV[αMeK]GK([PEG2′-PEG2′-γGlu-Stearoyl])-NH2 [SEQ ID NO 99]
